Experimental data taken from the supplement of paper PMC7125110.
± gives the standard error. Variants at the floor of the assay were thinned out.

B1: glmS ribozyme (parent)
chain: AUAAAAGCGCCAGAACUACAGAAAUGUAGUUGACGAGGAGGAGGUUUAUCGAAUUUUCGGCGGAUGCCUCCAAA

How the values were obtained:
Conditions in all cases: with glucosamine-6-phosphate
[1] = variants of: B1; assay: self-cleavage kobs at 640 uM GlcN6P; higher = faster cleavage; RNA array
Procedure, shortened: (§1)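 A hybridised Cy3 probe tracked barcoded ribozyme variants, transcribed in situ by E. coli RNA polymerase on sequenced MiSeq chips, at 37 °C. The variants received 40 μM to 10 mM glucosamine-6-phosphate in HEPES/KCl/Mg(OAc)2 buffer. kobs came from decay fits and kcat and KM from weighted Michaelis–Menten fits.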

[2] = variants of: B1; assay: self-cleavage kobs at 2500 uM GlcN6P; higher = faster cleavage; RNA array
Procedure, shortened: as §1

[3] = variants of: B1; assay: self-cleavage kobs at 160 uM GlcN6P; higher = faster cleavage; RNA array
Procedure, shortened: as §1

[4] = variants of: B1; assay: self-cleavage kobs at 10000 uM GlcN6P; higher = faster cleavage; RNA array
Procedure, shortened: as §1

Variant | self-cleavage kobs at 640 uM GlcN6P [1] [s⁻¹] | self-cleavage kobs at 2500 uM GlcN6P [2] [s⁻¹] | self-cleavage kobs at 160 uM GlcN6P [3] [s⁻¹] | self-cleavage kobs at 10000 uM GlcN6P [4] [s⁻¹]
A6U G35C A64C | < 1e-05 | < 1e-05 | – | –
A48C G60A C61A | – | – | < 1e-05 | –
U47C G59A | – | – | < 1e-05 | –
U49A A52U U65A U69G | 0.00031 ± 0.00012 | – | 7.53e-05 ± 2.4e-05 | –
A6C A42U C50U U57A G62C | < 1e-05 | – | – | –
A6C U69G | 0.000265 ± 0.00011 | – | – | –
G60U A64U C68U | < 1e-05 | < 1e-05 | < 1e-05 | –
A6C C8G C11A A52C U57G G63C U69G | 0.0016 ± 0.00077 | – | – | –
G63A C67U | – | – | < 1e-05 | –
G41C G43A G44C C68U C71U | – | < 1e-05 | < 1e-05 | –
G51U A52G C58U G59A | < 1e-05 | < 1e-05 | < 1e-05 | –
G44U G63U | < 1e-05 | < 1e-05 | < 1e-05 | < 1e-05
U49G G51U | < 1e-05 | < 1e-05 | < 1e-05 | < 1e-05
A6G G51C A53U C67U | < 1e-05 | – | – | –
A6G A15G A42G | 0.000137 ± 4.7e-05 | – | – | –
A6G G9C G60C G63A C68U | < 1e-05 | – | – | –
G44U U47C | – | – | < 1e-05 | –
A52C U54C | – | – | < 1e-05 | –
A6G G7A C10U G44C G60C | < 1e-05 | < 1e-05 | – | –

Variant | self-cleavage kobs at 640 uM GlcN6P [1] [s⁻¹] | self-cleavage kobs at 2500 uM GlcN6P [2] [s⁻¹] | self-cleavage kobs at 160 uM GlcN6P [3] [s⁻¹] | self-cleavage kobs at 10000 uM GlcN6P [4] [s⁻¹]
A6U A14C G51C | < 1e-05 | < 1e-05 | – | –
G40U G51U C58U | – | – | < 1e-05 | –
G43A C61G C67U C70U | < 1e-05 | – | < 1e-05 | –
A6C G41A U54G G59A G62C | < 1e-05 | – | – | < 1e-05
C50A C70G | 7.68e-05 ± 1.2e-05 | 6.7e-05 ± 8.5e-06 | 0.001 ± 0.00045 | –
U45C A53C C67U | 5.23e-05 ± 1.6e-05 | 6.03e-05 ± 1.8e-05 | < 1e-05 | –
G41A C68U C70U | 0.00049 ± 8.2e-05 | 0.00138 ± 0.00025 | 0.000155 ± 3.4e-05 | –
U56C C67G | < 1e-05 | – | < 1e-05 | < 1e-05
U45C G62U | < 1e-05 | < 1e-05 | < 1e-05 | < 1e-05
A1U U2G A3G C70A | 0.000245 ± 0.00011 | – | – | –
A6C A12U G51U U54G | < 1e-05 | < 1e-05 | – | –
C50G A53U | – | – | 0.00155 ± 0.00063 | –
A6G U30A G41A C68U | < 1e-05 | – | – | –
U49A G62A | < 1e-05 | – | < 1e-05 | –
G44U U49C | < 1e-05 | – | < 1e-05 | < 1e-05
A6G C8G C11G G13U C50G C61A C71U | 0.00556 ± 0.0017 | 0.000121 ± 5.1e-05 | – | –
G43U G59U G63U C68A | < 1e-05 | < 1e-05 | < 1e-05 | –
U65G C67A C71G | 4.48e-05 ± 1.8e-05 | 7.1e-05 ± 1.3e-05 | 0.000166 ± 5.7e-05 | 4.47e-05 ± 1.5e-05
A6G A14C C34U | < 1e-05 | – | – | –

Variant | self-cleavage kobs at 640 uM GlcN6P [1] [s⁻¹] | self-cleavage kobs at 2500 uM GlcN6P [2] [s⁻¹] | self-cleavage kobs at 160 uM GlcN6P [3] [s⁻¹] | self-cleavage kobs at 10000 uM GlcN6P [4] [s⁻¹]
C50G G60U | – | 4.39e-05 ± 1.9e-05 | 4.83e-05 ± 1.6e-05 | –
A6C G38A C50G C67U | 0.000113 ± 4.8e-05 | 7.23e-05 ± 1.8e-05 | – | 4.13e-05 ± 1.3e-05
G51U U56C U57C G63U | < 1e-05 | < 1e-05 | < 1e-05 | < 1e-05
U49C G51C G60C C68U | < 1e-05 | < 1e-05 | < 1e-05 | –
G41C G66U | < 1e-05 | – | < 1e-05 | –
A6C A39G U57G | < 1e-05 | < 1e-05 | – | –
G43U G59U | < 1e-05 | < 1e-05 | < 1e-05 | –
U49C C58A G60U | < 1e-05 | < 1e-05 | < 1e-05 | –
G40A G44U C61A | < 1e-05 | – | < 1e-05 | < 1e-05
G41A C67A | – | – | < 1e-05 | 4.21e-05 ± 8.7e-06
U2C G32C G60U G63C | < 1e-05 | – | – | –
U45C A64U | < 1e-05 | – | < 1e-05 | –
C50G G60A A64G | 6.58e-05 ± 2.3e-05 | 0.000134 ± 5.2e-05 | 8.18e-05 ± 2.1e-05 | –
A6C C8U G38C G51C | < 1e-05 | < 1e-05 | – | –
G40C G60U C67G | < 1e-05 | < 1e-05 | < 1e-05 | –
C61U C67U | < 1e-05 | – | < 1e-05 | –
A6U G29U G32U A42G U47A C71G | < 1e-05 | < 1e-05 | – | –
G40C A48U C61U | < 1e-05 | – | < 1e-05 | –
